Test results from PMC4423566 (Nature communications, 2015).
Read-outs that look alike come from different tables or passages of the source. Square brackets hold non-standard residues; d marks the D form. Peptide text beside a SMILES is read from it. * marks the point of attachment. X1 = CC(=O)N[C@@H]1[C@@H](O[C@@H]2O[C@H](CO)[C@H](O)[C@H](O)[C@H]2O)[C@@H](O)[C@@H](CO[C@@H]2O[C@H](CO)[C@@H](O[C@@H]3O[C@H](CO)[C@H](O)[C@H](O[C@]4(C(=O)O)C[C@H](O)[C@@H](NC(C)=O)[C@H]([C@H](O)[C@H](O)CO)O4)[C@H]3O)[C@H](O[C@@H]3O[C@@H](C)[C@@H](O)[C@@H](O)[C@@H]3O)[C@H]2NC(C)=O)O[C@@H]1*; sY = N[C@@H](Cc1ccc(OS(=O)(=O)O)cc1)C(=O)O; Mca = COc1ccc2c(CC(=O)*)cc(=O)oc2c1

What was measured:
[1] = Temperature- and pH-dependent stability by RP-HPLC; assay type: physicochemical; details: pH 5, T = 37°C
P-selectin [2] = experiment: Microarray binding of glycopeptide mimics to selectin-Ig chimeras; set-up: species or system human and mouse; details: selectin-Ig chimeras 5-20 μg/mL, Alexa-488 anti-human IgG
E-selectin = details: cited from earlier work
L-selectin = details: cited from earlier work
P-selectin [3] = details: read-out: IC50 against P-selectin; cited from earlier work
[4] = target: recombinant mouse P-selectin Fc chimera (mouse) (UniProt Q01102); experiment: flow cytometry on cells
[5] = target: recombinant mouse L-selectin Fc chimera (mouse) (UniProt P18337); experiment: flow cytometry on cells
Chain of recombinant mouse L-selectin Fc chimera (mouse) (P18337 39-332, change not shown): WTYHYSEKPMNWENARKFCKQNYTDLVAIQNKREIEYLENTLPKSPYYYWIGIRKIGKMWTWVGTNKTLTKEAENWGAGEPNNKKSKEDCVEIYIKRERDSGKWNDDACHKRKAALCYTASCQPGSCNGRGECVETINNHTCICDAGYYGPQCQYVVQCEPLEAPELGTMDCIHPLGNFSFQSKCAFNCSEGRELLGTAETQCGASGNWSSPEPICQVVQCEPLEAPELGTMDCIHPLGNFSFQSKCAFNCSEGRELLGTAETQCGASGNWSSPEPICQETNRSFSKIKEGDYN

[6] = target: recombinant human P-selectin Fc chimera (human) (UniProt P16109); experiment: flow cytometry on cells
[7] = target: recombinant mouse P-selectin Fc chimera (mouse) (UniProt Q01102); experiment: flow cytometry on cells; remark: listed apart in the source
[8] = target: recombinant human P-selectin Fc chimera (human) (UniProt P16109); experiment: flow cytometry on cells; remark: listed apart in the source
human P-selectin = human P-selectin (Homo sapiens, UniProt P16109); details: cited from earlier work
GSnP-6 = experiment: SPR

COc1ccc2c(CC(=O)NCCCC[C@H](N)C(=O)N[C@@H](CCC(=O)O)C(=O)N[C@@H](Cc3ccc(OS(=O)(=O)O)cc3)C(=O)N[C@@H](CCC(=O)O)C(=O)N[C@@H](Cc3ccc(OS(=O)(=O)O)cc3)C(=O)N[C@@H](CC(C)C)C(=O)N[C@@H](CC(=O)O)C(=O)N[C@@H](Cc3ccc(OS(=O)(=O)O)cc3)C(=O)N[C@@H](CC(=O)O)C(=O)N[C@@H](Cc3ccccc3)C(=O)N[C@@H](CC(C)C)C(=O)N3CCC[C@H]3C(=O)N[C@@H](CCC(=O)O)C(=O)N[C@H](C(=O)N[C@@H](CCC(=O)O)C(=O)N3CCC[C@H]3C(=O)N[C@@H](CC(C)C)C(=O)O)[C@@H](C)O[C@H]3O[C@H](CO[C@@H]4O[C@H](CO)[C@@H](O[C@@H]5O[C@H](CO)[C@H](O)[C@H](O[C@]6(C(=O)O)C[C@H](O)[C@@H](NC(C)=O)[C@H]([C@H](O)[C@H](O)CO)O6)[C@H]5O)[C@H](O[C@@H]5O[C@@H](C)[C@@H](O)[C@@H](O)[C@@H]5O)[C@H]4NC(C)=O)[C@H](O)[C@H](O[C@@H]4O[C@H](CO)[C@H](O)[C@H](O)[C@H]4O)[C@H]3NC(C)=O)cc(=O)oc2c1 [GSP-6] (H-K(Mca)E[sY]E[sY]LD[sY]DFLPET(X1)EPL-OH)
stability at low pH [1]: rapidly degraded
microarray binding to P-selectin (in words) (P-selectin [2]): bound to P-selectin more strongly than to E- or L-selectin

O=C(O)Cc1cccc(-c2cc(CCCCCCc3ccc(O[C@H]4O[C@H](CO)[C@@H](O)[C@H](O)[C@@H]4O)c(-c4cccc(CC(=O)O)c4)c3)ccc2O[C@H]2O[C@H](CO)[C@@H](O)[C@H](O)[C@@H]2O)c1 [bimosiamose, reference compound]
IC50 (L-selectin; read-out: IC50 against L-selectin): > 500 µM
IC50 (P-selectin [3]): 70 µM

GSnP-6 (peptide)
IC50 [4]: 28 µM
IC50 [5]: 30 µM
IC50 [6]: 14 µM
IC50 [7]: 19 µM
IC50 [8]: 20 µM

PSGL-1 (from UniProt Q14242)
Kd (human P-selectin): 0.073 µM

recombinant human P-selectin Fc chimera (from UniProt P16109 42-771) (Fc fusion)
Kd (GSnP-6): 0.022 µM

B1: recombinant mouse P-selectin Fc chimera (Fc fusion)
chain: WTYNYSTKAYSWNNSRVFCRRHFTDLVAIQNKNEIAHLNDVIPFFNSYYWIGIRKINNKWTWVGTNKTLTEEAENWADNEPNNKKNNQDCVEIYIKSNSAPGKWNDEPCFKRKRALCYTASCQDMSCSNQGECIETIGSYTCSCYPGFYGPECEYVKECGKVNIPQHVLMNCSHPLGEFSFNSQCTFSCAEGYELDGPGELQCLASGIWTNNPPKCDAVQCQSLEAPPHGTMACMHPIAAFAYDSSCKFECQPGYRARGSNTLHCTGSGQWSEPLPTCEAIACEPPEIPIHGSMDCVPSTGTFGYNSSCTFLCAEGFVLKGNDAIQCADSGQWTAPAPFCEALQCPEFPVPSKAQVNCSDPFGTLTYQSVCSFSCDEGSLLVGASVIRCLATGHWNGAPPECQAVSCAPMLSPENGSMTCVQPLGNSTYKSTCQFMCDEGFYLSGPERLDCSPSGHWTGTPPTCEAIKCPGIFAPEQGNLDCSHVHGEFGVGSICHFSCNEDFELLGSENVECTVSGRWSAPPPTCKGITSLPAPAVRCPALTTPGQGTMSCQHHLGSFGPNTTCYFGCKTGFTLRGANSLRCRASGQWTAVTPMCRAVKCSELHMDTAVAMNCSNPWGNFSYGSTCTFQCPEGQSLNGSVRATCREDGHWSDAMPTCQAGTLTIQEA
fold change of Kd against human P-selectin (GSnP-6): 9 fold

B2: L-sel-Ig (Biacore assay, species not stated) (Fc fusion)
chain: WTYHYSEKPMNWQRARRFCRDNYTDLVAIQNKAEIEYLEKTLPFSRSYYWIGIRKIGGIWTWVGTNKSLTEEAENWGDGEPNNKKNKEDCVEIYIKRNKDAGKWNDDACHKLKAALCYTASCQPWSCSGHGECVEIINNYTCNCDVGYYGPQCQFVIQCEPLEAPELGTMDCTHPLGNFSFSSQCAFSCSEGTNLTGIEETTCGPFGNWSSPEPTCQVIQCEPLSAPDLGIMNCSHPLASFSFTSACTFICSEGTELIGKKKTICESSGIWSNPSPICQKLDKSFSMIKEGDYN
fold lower affinity than P-Sel-Ig (GSnP-6): 25 fold

B3: E-sel-Ig (Biacore assay, species not stated) (Fc fusion)
chain: WSYNTSTEAMTYDEASAYCQQRYTHLVAIQNKEEIEYLNSILSYSPSYYWIGIRKVNNVWVWVGTQKPLTEEAKNWAPGEPNNRQKDEDCVEIYIKREKDVGMWNDERCSKKKLALCYTAACTNTSCSGHGECVETINNYTCKCDPGFSGLKCEQIVNCTALESPEHGSLVCSHPLGNFSYNSSCSISCDRGYLPSSMETMQCMSSGEWSAPIPACNVVECDAVTNPANGFVECFQNPGSFPWNTTCTFDCEEGFELMGAQSLQCTSSGNWDNEKPTCKAVTCRAVRQPQNGSVRCSHSPAGEFTFKSSCNFTCEEGFMLQGPAQVECTTQGQWTQQIPVCEAFQCTALSNPERGYMNCLPSASGSFRYGSSCEFSCEQGFVLKGSKRLQCGPTGEWDNEKPTCEAVRCDAVHQPPKGLVRCAHSPIGEFTYKSSCAFSCEEGFELHGSTQLECTSQGQWTEEVPSCQVVKCSSLAVPGKINMSCSGEPVFGTVCKFACPEGWTLNGSAARTCGATGHWSGLLPTCEAPTESNIP
fold lower affinity than P-Sel-Ig (GSnP-6): 25 fold

B4: P-selectin-glycoprotein-ligand-1 (protein, UniProt Q14242 42-412, looked up)
P-selectin glycoprotein …: QATEYEYLDYDFLPETEPPEMLRNSTDTTPLTGPGTPESTTVEPAARRSTGLDAGGAVTELTTELANMGNLSTDSAAMEIQTTQPAATEAQTTQPVPTEAQTTPLAATEAQTTRLTATEAQTTPLAATEAQTTPPAATEAQTTQPTGLEAQTTAPAAMEAQTTAPAAMEAQTTPPAAMEAQTTQTTAMEAQTTAPEATEAQTTQPTATEAQTTPLAAMEALSTEPSATEALSMEPTTKRGLFIPFSVSSVTHKGIPMAASNLSVNYPVGAPDHISVKQCLLAILILALVATIFFVCTVVLAVRLSRKGHMYPVRNYSPTEMVCISSLLPDGGEGPSATANGGLSKAKSPGLTPEPREDREGDDLTLHSFLP
Kd (E-selectin; read-out: Kd of PSGL-1 binding to E-selectin): 2 to 5 µM
Kd (L-selectin; read-out: Kd of PSGL-1 binding to L-selectin): 2 to 5 µM
